B1: N^8-methyl, … (peptide)
peptide: H[NMeA]EGTFTSDVSSYLEGQAAK([AEEA-AEEA-γGlu-C18 diacid])EFIAHLVQGRG
B2: N^ε26-[2-(2-{2-[2-(2-{2-[(S)-4-Carboxy-4-(17-carboxyheptadecanoylamino)butyrylamino]ethoxy}ethoxy)acetylamino]ethoxy}ethoxy)acetyl][Aib^8,His^31,Gln^34]GLP-1(7- … (peptide)
peptide: HXEGTFTSDVSSYLEGQAAKEFIAHLVQGRG
modifications: Aib8; Lys26 N-epsilon-acylated (side chain as in name); GLP-1(7-37) numbering
B3: N^ε26-2,3-bis[[2-[2-[2-[[2-[2-[2-[[(4S)-4-carboxy-4-(13-carboxytridecanoylamino)butanoyl]amino]ethoxy]ethoxy]acetyl]amino]ethoxy]ethoxy]acetyl]amino]propanoyl-[ … (peptide)
peptide: B2 peptide
modifications: not fully specified; Aib8; Lys26 N-epsilon-acylated (branched side chain as in name); GLP-1(7-37) numbering
B4: N^ε26-4-[16-(1H-tetrazol-5-yl)hexadecanoylsulfamoyl]butanoyl-[His^31,Gln^34]-GLP-1-(7-37)-peptide (peptide)
peptide: HAEGTFTSDVSSYLEGQAAK(X1)EFIAHLVQGRG
B5: N^ε36-[2-[2-[2-(17-carboxyheptadecanoylamino)ethoxy]ethoxy]acetyl]-[Aib^8,Glu^30,His^31,Gln^34,Lys^36]-GLP-1-(7-37)-peptidyl-Glu amide (peptide)
peptide: HXEGTFTSDVSSYLEGQAAKEFIEHLVQGKGE
HELM: PEPTIDE1{H.[Aib].E.G.T.F.T.S.D.V.S.S.Y.L.E.G.Q.A.A.K.E.F.I.E.H.L.V.Q.G.K.G.E.[am]}|PEPTIDE2{[O=C(O)CCCCCCCCCCCCCCCCC(=O)[*:2]].[O=C(COCCOCCN[*:1])[*:2]]}$PEPTIDE1,PEPTIDE2,30:R3-2:R2$$$V2.0; N-terminus assumed
SMILES: CC[C@H](C)[C@H](NC(=O)[C@H](Cc1ccccc1)NC(=O)[C@H](CCC(=O)O)NC(=O)[C@H](CCCCN)NC(=O)[C@H](C)NC(=O)[C@H](C)NC(=O)[C@H](CCC(N)=O)NC(=O)CNC(=O)[C@H](CCC(=O)O)NC(=O)[C@H](CC(C)C)NC(=O)[C@H](Cc1ccc(O)cc1)NC(=O)[C@H](CO)NC(=O)[C@H](CO)NC(=O)[C@@H](NC(=O)[C@H](CC(=O)O)NC(=O)[C@H](CO)NC(=O)[C@@H](NC(=O)[C@H](Cc1ccccc1)NC(=O)[C@@H](NC(=O)CNC(=O)[C@H](CCC(=O)O)NC(=O)C(C)(C)NC(=O)[C@@H](N)Cc1c[nH]cn1)[C@@H](C)O)[C@@H](C)O)C(C)C)C(=O)N[C@@H](CCC(=O)O)C(=O)N[C@@H](Cc1c[nH]cn1)C(=O)N[C@@H](CC(C)C)C(=O)N[C@H](C(=O)N[C@@H](CCC(N)=O)C(=O)NCC(=O)N[C@@H](CCCCNC(=O)COCCOCCNC(=O)CCCCCCCCCCCCCCCCC(=O)O)C(=O)NCC(=O)N[C@@H](CCC(=O)O)C(N)=O)C(C)C
B6: [Aib^8,Glu^30,His^31,Gln^34,Lys^36] GLP-1(7-37)yl-Glu^38-peptide amide (peptide)
peptide: B5 peptide
HELM: PEPTIDE1{H.[Aib].E.G.T.F.T.S.D.V.S.S.Y.L.E.G.Q.A.A.K.E.F.I.E.H.L.V.Q.G.K.G.E.[am]}$$$$V2.0; N-terminus assumed
SMILES: CC[C@H](C)[C@H](NC(=O)[C@H](Cc1ccccc1)NC(=O)[C@H](CCC(=O)O)NC(=O)[C@H](CCCCN)NC(=O)[C@H](C)NC(=O)[C@H](C)NC(=O)[C@H](CCC(N)=O)NC(=O)CNC(=O)[C@H](CCC(=O)O)NC(=O)[C@H](CC(C)C)NC(=O)[C@H](Cc1ccc(O)cc1)NC(=O)[C@H](CO)NC(=O)[C@H](CO)NC(=O)[C@@H](NC(=O)[C@H](CC(=O)O)NC(=O)[C@H](CO)NC(=O)[C@@H](NC(=O)[C@H](Cc1ccccc1)NC(=O)[C@@H](NC(=O)CNC(=O)[C@H](CCC(=O)O)NC(=O)C(C)(C)NC(=O)[C@@H](N)Cc1c[nH]cn1)[C@@H](C)O)[C@@H](C)O)C(C)C)C(=O)N[C@@H](CCC(=O)O)C(=O)N[C@@H](Cc1c[nH]cn1)C(=O)N[C@@H](CC(C)C)C(=O)N[C@H](C(=O)N[C@@H](CCC(N)=O)C(=O)NCC(=O)N[C@@H](CCCCN)C(=O)NCC(=O)N[C@@H](CCC(=O)O)C(N)=O)C(C)C
notes: unacylated analogue; also called (8Aib, 30E, 31H, 34Q, 36K, 38E)
B7: N^α([Aib^8,His^31,Gln^34]-GLP-1-(7-37)-peptidyl)-Lysine (peptide)
peptide: B5 peptide with E24A, K30R, E32K
modifications: Aib8 (GLP-1(7-37) numbering)
notes: unacylated analogue; also called (8Aib, 31H, 34Q, 38K)
B8: N^ε26-[2-[2-[2-[[2-[2-[2-[[(4S)-4-carboxy-4-(15-carboxypentadecanoylamino)butanoyl]amino]ethoxy]ethoxy]acetyl]amino]ethoxy]ethoxy]acetyl][His^31,Gln^34]-GLP-1-( … (peptide)
peptide: HAEGTFTSDVSSYLEGQAAK([AEEA-AEEA-γGlu-C16 diacid])EFIAHLVQGRG

Residue numbers refer to the chain shown, from its start. Numbered stars: 1 amine (or outer) side, 2 acyl side, 3 side chain; on linkers, the order of the positions; unused ones are H or OH. Square brackets hold non-standard residues; d marks the D form. Side chains are listed from the residue outwards. Ends that are not written are not given here. * marks the point of attachment. X1 = 4‑(16-(1H-tetrazol-5-yl)hexadecanoylsulfamoyl)butanoyl, O=C(CCCCCCCCCCCCCCCc1nn[nH]n1)NS(=O)(=O)CCCC(=O)*; C18 diacid = O=C(O)CCCCCCCCCCCCCCCCC(=O)*; C16 diacid = O=C(O)CCCCCCCCCCCCCCC(=O)*; γGlu = O=C(O)[C@H](CCC(=O)[*:2])N[*:1]; NMeA = CN[C@@H](C)C(=O)O; AEEA = NCCOCCOCC(=O)O

The first experiment has as its target T1, human GLP-1 receptor (human, UniProt P43220 24-463).
T1 construct: whole, on cells; Used as purified plasma membranes of the transfected hamster cell line, not as intact cells; also called hGLP-1
Put plainly: SPA, displacement of 125I-GLP-1(7-36)NH2 from hGLP-1R membranes, 0.005% HSA. The procedure: (§1) 25 ul (micro liter) of test compounds were added to Optiplate. HSA ("high albumin" experiment containing 2% HSA), or buffer ("low albumin" experiment containing 0.005% HSA), was added (50 ul). 5-10 ug protein/sample was added (50 ul) corresponding to 0.1-0.2 mg protein/ml (to be preferably optimised for each membrane preparation). SPA-particles (Wheatgerm agglutinin SPA beads, Perkin Elmer, #RPNQ0001) were added in an amount of 0.5 mg/well (50 ul). […] The plates were sealed with PlateSealer and incubated for 120 minutes at 30° C. while shaking. The plates were centrifuged (1500 rpm, 10 min) and counted in Topcounter.
For orientation: In a radioligand displacement assay an active substance lowers the binding of a labelled ligand.
For B1, the IC50 (in general, the concentration needed to halve the response being measured) was less than 600 nM.
In turn, B2 registered a 50% inhibitory concentration (IC50) of less than 600 nM.
On the same count and under the same terms, as for B3, the figure is less than 600 nM.
The same measure, in the same setting: as for B4, the figure is less than 600 nM; as for B5, less than 600 nM.
Take B6: the half-inhibitory concentration (IC50) was less than 600 nM.
Molecule B7 yielded an IC50 of less than 600 nM.
For B8, the IC50 was less than 600 nM.

A further experiment concerns the target T1, human GLP-1 receptor. As to the kind of experiment: SPA, displacement of 125I-GLP-1(7-36)NH2 from hGLP-1R membranes, 2.0% HSA. The procedure:
as §1
For the molecule B1, the half-inhibitory concentration (IC50) was not above 1000 nM.
With B2, the IC50 is not above 1000 nM.
Molecule B3 yielded a half-maximal inhibitory concentration (IC50) not above 1000 nM.
On the same count and under the same terms, for B4 the value was not above 1000 nM.
In turn, B5 gave a half-maximal inhibitory concentration (IC50) not above 1000 nM.
B6: the IC50 is not above 1000 nM.
As to B7, the IC50 is not above 1000 nM.
Still for that read-out and setting: for B8 the value was not above 1000 nM.

The values above are taken from patent US8815802 (Novo Nordisk, dated 2014).
